From the supplement of paper PMC7125110
± gives the standard error. For some of these results: Fewer inactive variants are shown than the library holds.

B1: glmS ribozyme (parent)
chain: AUAAAAGCGCCAGAACUACAGAAAUGUAGUUGACGAGGAGGAGGUUUAUCGAAUUUUCGGCGGAUGCCUCCAAA

Key:
Details in all cases: with glucosamine-6-phosphate
[1] = variants of: B1; experiment: kcat; higher = faster cleavage; RNA array
Procedure, shortened: (§1)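 Glucosamine-6-phosphate, from 40 μM to 10 mM in HEPES/KCl/Mg(OAc)2 buffer, was flowed over sequenced MiSeq chips carrying barcoded ribozyme variants transcribed in situ by E. coli RNA polymerase. A hybridised Cy3 probe tracked the variants at 37 °C as tiles were imaged over ~14 h. kobs, kcat and KM were obtained by fitting normalised per-tile medians to exponential decays and then applying weighted Michaelis–Menten fits across concentrations.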

[2] = variants of: B1; experiment: KM; higher = weaker cofactor use; RNA array
Procedure, shortened: as §1

[3] = variants of: B1; experiment: self-cleavage kobs at 160 uM GlcN6P; higher = faster cleavage; RNA array
Procedure, shortened: as §1

[4] = variants of: B1; experiment: self-cleavage kobs at 640 uM GlcN6P; higher = faster cleavage; RNA array
Procedure, shortened: as §1

[5] = variants of: B1; experiment: self-cleavage kobs at 2500 uM GlcN6P; higher = faster cleavage; RNA array
Procedure, shortened: as §1

[6] = variants of: B1; experiment: self-cleavage kobs at 10000 uM GlcN6P; higher = faster cleavage; RNA array
Procedure, shortened: as §1

[7] = variants of: B1; experiment: self-cleavage kobs at 40 uM GlcN6P; higher = faster cleavage; RNA array
Procedure, shortened: as §1

Variant | kcat [1] [s⁻¹] | KM [2] [µM] | self-cleavage kobs at 160 uM GlcN6P [3] [s⁻¹] | self-cleavage kobs at 640 uM GlcN6P [4] [s⁻¹] | self-cleavage kobs at 2500 uM GlcN6P [5] [s⁻¹] | self-cleavage kobs at 10000 uM GlcN6P [6] [s⁻¹] | self-cleavage kobs at 40 uM GlcN6P [7] [s⁻¹]
A39G A52G | 0.00286 ± 0.00015 | 3960 ± 330 | 0.000117 ± 3.5e-05 | 0.000407 ± 8.1e-05 | 0.00108 ± 0.0003 | 0.00205 ± 0.00028 | 
A6U U54A C67A | 2.15e-05 ± 2.2e-06 |  | < 1e-05 |  |  |  | 
G13A G32U | 0.000303 ± 3.2e-05 | 3170 ± 600 |  | 4.76e-05 ± 1e-05 | 0.000147 ± 2.3e-05 | 0.000221 ± 3.7e-05 | 
G43U C61U |  |  | < 1e-05 | < 1e-05 | < 1e-05 | < 1e-05 | < 1e-05
A42C A53G |  |  | < 1e-05 |  |  |  | < 1e-05
C34U A42U |  | 70.4 ± 29 |  |  |  |  | 
G13U C68A | 1.31e-05 ± 2e-06 |  |  |  |  |  | 
A14G G37U | 2.35e-05 ± 1.3e-06 | 1680 ± 470 |  |  |  | 2.02e-05 ± 1e-05 | < 1e-05
G40A G44C |  | 2680 ± 1100 |  |  |  |  | 
G60A C71U |  |  |  | < 1e-05 |  |  | < 1e-05
A42C C70G | 4.99e-05 ± 4.3e-06 | 1410 ± 550 |  |  | 3.37e-05 ± 7.9e-06 | 4.32e-05 ± 6.7e-06 | 
C10A G51U G63C | 1.02e-05 ± 4.6e-07 | 731 ± 360 |  |  | < 1e-05 |  | 
A12U A14G C16G |  |  |  |  |  |  | 0.000643 ± 0.00021
G43A U56G | 4.8e-05 ± 2.6e-07 | 3400 ± 58 |  |  |  | 3.58e-05 ± 9e-06 | 
U65A U69G | 5.5e-05 ± 1.5e-05 |  | 7.34e-05 ± 1.9e-05 | 4.35e-05 ± 1.4e-05 | 8.3e-05 ± 1.9e-05 |  | 
U57A C70G | 3.91e-05 ± 1.5e-05 |  |  | 4.96e-05 ± 1.4e-05 | 6.55e-05 ± 1.6e-05 |  | 
G35U U54C U56G A64U C70U |  |  |  |  |  | < 1e-05 | < 1e-05
A6G A42U A64G |  |  |  | < 1e-05 | < 1e-05 | < 1e-05 | < 1e-05
G29C U54G G60A |  |  |  |  |  | < 1e-05 | < 1e-05
C58A G62A | < 1e-05 |  |  | < 1e-05 |  |  | < 1e-05
G7A A15U C58A |  |  |  | < 1e-05 | < 1e-05 | < 1e-05 | < 1e-05
C16U A33U | 0.000109 ± 1.2e-05 | 2420 ± 740 |  | 3.18e-05 ± 8.4e-06 | 5.09e-05 ± 6.2e-06 | 8.92e-05 ± 7.1e-06 | 

Variant | kcat [1] [s⁻¹] | KM [2] [µM] | self-cleavage kobs at 160 uM GlcN6P [3] [s⁻¹] | self-cleavage kobs at 640 uM GlcN6P [4] [s⁻¹] | self-cleavage kobs at 2500 uM GlcN6P [5] [s⁻¹] | self-cleavage kobs at 10000 uM GlcN6P [6] [s⁻¹] | self-cleavage kobs at 40 uM GlcN6P [7] [s⁻¹]
A48U U65G C70U | 0.00017 ± 4.1e-05 |  | < 1e-05 |  | 0.000122 ± 2.8e-05 | 0.000132 ± 3e-05 | 
G7U C10A G60U |  |  | < 1e-05 |  | < 1e-05 |  | < 1e-05
C11A G32A A39U |  |  |  | < 1e-05 |  |  | < 1e-05
A36C C50G G51A | < 1e-05 |  | < 1e-05 |  |  |  | 
C16U U31A |  |  | 0.000862 ± 0.00014 | 0.00468 ± 0.00061 | 0.00634 ± 0.0017 | 0.0168 ± 0.0026 | 0.000621 ± 7.9e-05
G13A C61G |  | 127 ± 17 |  |  |  |  | 
G63C C67G | < 1e-05 |  |  |  |  |  | < 1e-05
A12G A52G A53G | 2.52e-05 ± 7.9e-06 |  |  |  |  |  | 
A12U U55G |  | 104 ± 42 | 0.00618 ± 0.0009 | 0.0105 ± 0.0021 | 0.00928 ± 0.0023 | 0.119 ± 0.048 | 0.00298 ± 0.00031
U54G U57A | 0.000134 ± 2.6e-05 | 1540 ± 760 |  | 3.49e-05 ± 1.2e-05 | 0.000118 ± 3.3e-05 | 0.00011 ± 2.1e-05 | 
G59A C67U | 4.36e-05 ± 1.3e-05 |  |  |  |  | 3.54e-05 ± 9.1e-06 | 
A12C G13U C71G | 1.5e-05 ± 5.4e-06 |  |  |  |  |  | 
A12C C68A | 2.22e-05 ± 4.9e-06 |  | < 1e-05 |  | 2.42e-05 ± 7.9e-06 |  | < 1e-05
U31G G51C |  | 210 ± 61 |  |  |  |  | 
G32A U54C | 0.00356 ± 0.0013 |  |  | 0.000309 ± 6.5e-05 | 0.00147 ± 0.00026 | 0.0022 ± 0.00036 | 3.45e-05 ± 1.1e-05
A42G U55C |  | 895 ± 430 | 0.00147 ± 0.00063 | 0.0147 ± 0.0051 | 0.0354 ± 0.016 | 0.0147 ± 0.0029 | 0.000832 ± 0.00014
A33C G38C |  |  | < 1e-05 | < 1e-05 | < 1e-05 |  | < 1e-05
U30C C71U | 0.000335 ± 3.4e-05 | 1530 ± 340 | 4.2e-05 ± 6.8e-06 | 9.35e-05 ± 1e-05 | 0.000195 ± 1.6e-05 | 0.000307 ± 2.3e-05 | 
G9C U31G U54C |  |  |  |  |  |  | < 1e-05
A15C U55C | 0.00633 ± 0.0012 | 2200 ± 580 | 0.000383 ± 7.4e-05 | 0.00121 ± 0.00034 | 0.00302 ± 0.00052 | 0.00573 ± 0.00087 | 0.000138 ± 2e-05
G40C U57A |  |  | < 1e-05 |  |  |  | < 1e-05
A6U G41A A42U |  |  |  |  |  | < 1e-05 | < 1e-05
